Tests used:
[1] = system: Dbh (WT) (Sulfolobus acidocaldarius); assay: fluorescence titration (2AP); conditions: 2-aminopurine at the primer terminus; 50 mM Tris acetate pH 7.5, 50 mM sodium acetate, 10 mM magnesium acetate, 5 mM DTT, 0.05% Tween 20, 25 °C; 100 nM 2AP-P/T, 0-1000 nM pol
[2] = system: Sdbh (Sso7d-Dbh fusion) (Sulfolobus acidocaldarius (Dbh); Sso7d source organism not stated); assay: fluorescence titration (2AP); conditions: 2-aminopurine at the primer terminus; 50 mM Tris acetate pH 7.5, 50 mM sodium acetate, 10 mM magnesium acetate, 5 mM DTT, 0.05% Tween 20, 25 °C; 100 nM 2AP-P/T, 0-1000 nM pol
[3] = system: SdbhA221S (Sulfolobus acidocaldarius (Dbh); Sso7d source organism not stated); assay: fluorescence titration (2AP); conditions: 10 mM Mg2+; 2-aminopurine at the primer terminus; 50 mM Tris acetate pH 7.5, 50 mM sodium acetate, 10 mM magnesium acetate, 5 mM DTT, 0.05% Tween 20, 25 °C; 100 nM 2AP-P/T, 0-1000 nM pol
[4] = system: SdbhI62V (Sulfolobus acidocaldarius (Dbh); Sso7d source organism not stated); assay: fluorescence titration (2AP); conditions: 2-aminopurine at the primer terminus; 50 mM Tris acetate pH 7.5, 50 mM sodium acetate, 10 mM magnesium acetate, 5 mM DTT, 0.05% Tween 20, 25 °C; 100 nM 2AP-P/T, 0-1000 nM pol
[5] = system: SdbhK337R (Sulfolobus acidocaldarius (Dbh); Sso7d source organism not stated); assay: fluorescence titration (2AP); conditions: 2-aminopurine at the primer terminus; 50 mM Tris acetate pH 7.5, 50 mM sodium acetate, 10 mM magnesium acetate, 5 mM DTT, 0.05% Tween 20, 25 °C; 100 nM 2AP-P/T, 0-1000 nM pol
[6] = system: SdbhKSKIP241-245RVRKS (Sulfolobus acidocaldarius (Dbh); Sso7d source organism not stated); assay: fluorescence titration (2AP); conditions: 2-aminopurine at the primer terminus; 50 mM Tris acetate pH 7.5, 50 mM sodium acetate, 10 mM magnesium acetate, 5 mM DTT, 0.05% Tween 20, 25 °C; 100 nM 2AP-P/T, 0-1000 nM pol
[7] = system: SdbhL250V (Sulfolobus acidocaldarius (Dbh); Sso7d source organism not stated); assay: fluorescence titration (2AP); conditions: 2-aminopurine at the primer terminus; 50 mM Tris acetate pH 7.5, 50 mM sodium acetate, 10 mM magnesium acetate, 5 mM DTT, 0.05% Tween 20, 25 °C; 100 nM 2AP-P/T, 0-1000 nM pol
[8] = system: SdbhM76I (Sulfolobus acidocaldarius (Dbh); Sso7d source organism not stated); assay: fluorescence titration (2AP); conditions: 2-aminopurine at the primer terminus; 50 mM Tris acetate pH 7.5, 50 mM sodium acetate, 10 mM magnesium acetate, 5 mM DTT, 0.05% Tween 20, 25 °C; 100 nM 2AP-P/T, 0-1000 nM pol
[9] = system: SdbhT37F (Sulfolobus acidocaldarius (Dbh); Sso7d source organism not stated); assay: fluorescence titration (2AP); conditions: 2-aminopurine at the primer terminus; 50 mM Tris acetate pH 7.5, 50 mM sodium acetate, 10 mM magnesium acetate, 5 mM DTT, 0.05% Tween 20, 25 °C; 100 nM 2AP-P/T, 0-1000 nM pol
[10] = system: SdbhY249I (Sulfolobus acidocaldarius (Dbh); Sso7d source organism not stated); assay: fluorescence titration (2AP); conditions: 2-aminopurine at the primer terminus; 50 mM Tris acetate pH 7.5, 50 mM sodium acetate, 10 mM magnesium acetate, 5 mM DTT, 0.05% Tween 20, 25 °C; 100 nM 2AP-P/T, 0-1000 nM pol
[11] = substrate: Nc1ccn([C@H]2C[C@H](O)[C@@H](COP(=O)(O)OP(=O)(O)OP(=O)(O)O)O2)c(=O)n1; assay: steady-state single-nucleotide insertion, FAM-primer gel assay; assay type: biochemical, Sulfolobus acidocaldarius; conditions: opposite template G (correct), 1.0 μM primer-template, 20 nM pol, 5 mM MgCl2, 100 mM KCl, pH 7.5, 37 °C, apparent Km
Text: (§1) steady-state single-nucleotide insertion, FAM-primer gel assay on Dbh (WTDbh)

[12] = substrate: Nc1ncnc2c1ncn2[C@H]1C[C@H](O)[C@@H](COP(=O)(O)OP(=O)(O)OP(=O)(O)O)O1; assay: as above; assay type: biochemical, Sulfolobus acidocaldarius; conditions: opposite template G (incorrect, misinsertion), 1.0 μM primer-template, 20 nM pol, 5 mM MgCl2, 100 mM KCl, pH 7.5, 37 °C, apparent Km
Text: as §1

| Molecule | Kd [1] | Kd [2] | Kd [3] | Kd [4] | Kd [5] | Kd [6] | Kd [7] | Kd [8] | Kd [9] | Kd [10] | Km [11] | Vmax [11] | Km [12] | Vmax [12] |
| --- | --- | --- | --- | --- | --- | --- | --- | --- | --- | --- | --- | --- | --- | --- |
| 2AP-P/T primer-template | 54.8 nM | 51.2 nM | 47.5 nM | 49.8 nM | 55.5 nM | 34.8 nM | 50.4 nM | 42.8 nM | 49.7 nM | 56.2 nM | – | – | – | – |
| Dbh (WTDbh) (Sulfolobus acidocaldarius DSM 639) (protein, synthetic gene, 6xHis tag (C-terminal by gene design, N-terminal by purification), expressed in E. coli BL21(DE3), Ni-NTA and Mono-S) MIVIFVDFDYFFAQVEEVLNPQYKGKPLVVCVYSGRTKTSGAVATANYEARKLGVKAGMPIIKAMQIAPSAIYVPMRKPIYEAFSNRIMNLLNKHADKIEVASIDEAYLDVTNKVEGNFENGIELARKIKQEILEKEKITVTVGVAPNKILAKIIADKSKPNGLGVIRPTEVQDFLNELDIDEIPGIGSVLARRLNELGIQKLRDILSKNYNELEKITGKAKALYLLKLAQNKYSEPVENKSKIPHGRYLTLPYNTRDVKVILPYLKKAINEAYNKVNGIPMRITVIAIMEDLDILSKGKKFKHGISIDNAYKVAEDLLRELLVRDKRRNVRRIGVKLDNIIINKTNLSDFFDI | – | – | – | – | – | – | – | – | – | – | 88.2 ± 12.0 µM | 0.001 µM/min | 215.2 ± 18.7 µM | 1.9e-05 µM/min |

From publication PMC5500549, “DNA binding strength increases the processivity and activity of a Y-Family DNA polymerase” (Scientific Reports, 2017)
